Data published in patent US20230203146A1 (Boehringer Ingelheim, published 2023).

T1: recombinant human Ang2-FLD (human, UniProt O15123 275-496, limits assumed)
T1 construct: domain: FLD; not used
T1 sequence (looked up): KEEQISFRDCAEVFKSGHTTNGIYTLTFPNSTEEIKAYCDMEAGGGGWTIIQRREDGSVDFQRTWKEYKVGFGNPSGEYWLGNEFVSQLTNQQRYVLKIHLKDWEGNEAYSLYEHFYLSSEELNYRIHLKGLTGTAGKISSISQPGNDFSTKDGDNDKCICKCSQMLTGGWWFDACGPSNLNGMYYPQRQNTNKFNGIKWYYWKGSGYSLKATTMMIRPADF


Molecular target: T1, recombinant human Ang2-FLD
Assay: ProteOn off-rate assay, periplasmic extract 1:10 over coated human Ang2-FLD
Procedure: In a first cycle, amino acid substitutions are introduced randomly in both framework (FW) and complementary determining regions (CDR) using the error-prone PCR method. […] After a polish step, PCR products are inserted via unique restriction sites into a vector designed to facilitate phage display of the VHH library. […] Periplasmic extract of affinity matured clones is diluted 1:10 and injected across the “analyte channels” A1-A6.

Row | fold improvement (off-rate against VHH 00027) | koff | Binder
1 | 9.4 fold | 0.00012 s⁻¹ | VHH 55D06 (VHH, periplasmic extract; not shown: C-terminal c-myc tag and His6 tag) VHH: EVQLVESGGGLVQAGGSLRLSCAASGLTLDDYAIGWFRQAPGKEREGVSSIRDNDGSTYYADSVKGRFTISSDNDKNTVYLQMNSLKPEDTAVYYCAAVPAGRLRFGEQWYPIYEYDAWGQGTLVTVSS
2 | 8 fold | 0.00016 s⁻¹ | VHH 53A06 (VHH, periplasmic extract; not shown: C-terminal c-myc tag and His6 tag) VHH: EVQLVESGGSLVQAGGSLRLSCAASGLTLDDYAIGWFRQAPGKEREGVSSIRDNDGSTYYADSVKGRFTISSDNDKNTVYLQMNSLKPEDTAVYYCAAVPAGRLRFGEQWYPIYEYDAWGQGTLVTVSS
3 | 8.9 fold | 0.00013 s⁻¹ | VHH 64G12 (VHH, periplasmic extract; not shown: C-terminal c-myc tag and His6 tag) VHH: EVQLVESGGGLVQAGGSLRLSCAVSGFTLDDYAIGWFRQAPGKEREGVSSIRENDGSTYYADSVQGRFTISSDNDKNTVYLRMNSLKPEDTAVYYCAAVPAGRLRFGEQWYPIYEYDAWGQGTLVTVSS
4 | 8 fold | 0.00015 s⁻¹ | VHH 55G03 (VHH, periplasmic extract; not shown: C-terminal c-myc tag and His6 tag) VHH: EVQLVESGGSLVQAGGSLRLSCAASGLTLDDYAIGWFRQAPGKEREGVSSIRDNDGSTYYADSVKGRFTISSDNDKNTVYLQMNSLKPEDTAVYYCAAVPAGRLRFGEQWYPIYEYDAWGQGTLVTVSS
5 | 9.2 fold | 0.00013 s⁻¹ | VHH 64C03 (VHH, periplasmic extract; not shown: C-terminal c-myc tag and His6 tag) VHH: EVQLVESGGGLVQAGGSLRLSCAASGFTLDDYAIGWFRQAPGKEREGVSSIRDNDGSTYYADSVKGRFTISSDNDKNTVYLQMNSLKPEDTAVYYCAAVPAGRLRYGEQWYPIYEYDAWGQGTLVTVSS
6 | 8.5 fold | 0.00014 s⁻¹ | VHH 64B02 (VHH, periplasmic extract; not shown: C-terminal c-myc tag and His6 tag) VHH: EVQLVESGGGLVQAGGFLRLTCAVSGFTLDDYAIGWFRQAPGKEREGVSSIRDNDGSTYYADSVKGRFTISSDNVKNTVYLQMNSLKPEDTAVYYCAAVPAGRLRFGEQWYPIYEYDAWGQGTLVTVSS
7 | 8.1 fold | 0.00013 s⁻¹ | VHH 58D10 (VHH, periplasmic extract; not shown: C-terminal c-myc tag and His6 tag) VHH: EELLVESGGGSVQAGGSLKLSCAASGLTLDDYAIGWFRQAPGKEREGVSSIRDNDGSTYYADSVKGRFTISSDNDKNTVYLQMNSLKPEDTAVYYCAAVPAGRLRFGEQWYPIYEYDAWGQGTLVTVSS
8 | 8.2 fold | 0.00014 s⁻¹ | VHH 64G01 (VHH, periplasmic extract; not shown: C-terminal c-myc tag and His6 tag) VHH: EVQLVESGGGLVQAGGSLRLSCAASGFTLDDYAIGWFRQAPGKEREGVSSIRDNDGSTYYADSVKGRFIISSDNDKNTVYLQMNNLKPEDTAVYYCAAVPAGRLRYGEQWYPIYEYDAWGQGTLVTVSS
9 | 10.3 fold | 0.00011 s⁻¹ | VHH 64D11 (VHH, periplasmic extract; not shown: C-terminal c-myc tag and His6 tag) VHH: EVQLVESGGGQAQAGGSLRLSCAVSGFTLDDYAIGWFRQAPGKEREGVSSIRDNDGSTYYTDSVKGRFTISSDNDKNTVYLQMNSLKPEDTAVYYCAAVPAGRLRFGEQWYPIYEYDAWGQGTLVTVSS
10 | 8.5 fold | 0.00016 s⁻¹ | VHH 60C09 (VHH, periplasmic extract; not shown: C-terminal c-myc tag and His6 tag) VHH: EVQLVESGGGLVQAGGSLRLSCAVSGITLDDYAIGWFRQAPGKEREGVSSIRDNDGSTYYADSVKWRFTISSDNDKNTVYLQMNSMKPEDTAVYYCAAVPAGRLRFGEQWYPIYEYDAWGQGILVTVSS
11 | 8.7 fold | 0.00014 s⁻¹ | VHH 55F02 (VHH, periplasmic extract; not shown: C-terminal c-myc tag and His6 tag) VHH: EVQLVESGGGLVQSGGSLRLSCAASGLTLDDYAIGWFRQAPGKEREGVSSIRDNDGSTYYADSVKGRFTISSDNDKNTVYLQMNSLKPEDTAVYYCAAVPAGRLRFGEQWYPIYEYDAWGQGTLVTVSS
12 | 8.2 fold | 0.00014 s⁻¹ | VHH 64B01 (VHH, periplasmic extract; not shown: C-terminal c-myc tag and His6 tag) VHH: EVQLVESGGGLVQAGGTLRLSCAVSGFTLDDYAIGWFRQAPGKEREGVSSIRDNDGSTYYADSVKGRFTISSDNDKNTVYLQMNSLKPEDTAVYYCAAVPAGRLRFGEQWYPIYEYDAWGQGILVTVSS
13 | 8.1 fold | 0.00016 s⁻¹ | VHH 65F01 (VHH, periplasmic extract; not shown: C-terminal c-myc tag and His6 tag) VHH: EVQLVESGGGLVQAGGSLRLSCAASGLTLDDYAIGWFRQAPGKEREGVSSIRDNDGSRYYADSVKGRFTISSDNDKNTVYLQMNSLKPEDTAVYYCAAVPAGRLRFGEQWYPIYEYDAWGQGTLVTVSS
14 | 9.4 fold | 0.00012 s⁻¹ | VHH 64F07 (VHH, periplasmic extract; not shown: C-terminal c-myc tag and His6 tag) VHH: QVQLVESGGGLVQAGGSLRLSCAVSGFTLDDYAIGWFRQAPGKEREGVSSIRDNDGSTYYADSVKGRFTISSDNDQNTVYLQMNSLKSEDTAVYYCAAVPAGRLRFGEQWYPIYEYDAWGQGTLVTVSS
15 | 8.3 fold | 0.00016 s⁻¹ | VHH 60A06 (VHH, periplasmic extract; not shown: C-terminal c-myc tag and His6 tag) VHH: EVQLVESGGGLVQAGGSLRLSCAASGFTLDDYAIGWFRQAPGKDREGVSSIRDNDGSTYYADSVKGRFTISSDNDKNTVYLQMNSLKPEDTAVYYCAAVPAGRLRYGEQWYPIYEYDAWGQGTVVTVSS
16 | 8.7 fold | 0.00013 s⁻¹ | VHH 64E12 (VHH, periplasmic extract; not shown: C-terminal c-myc tag and His6 tag) VHH: EVQLVESGGGLVQAGGSLRLSCAVSGFTLDDYAIGWFRQAPGKEREGVSSIRDNDGSTYYADSVKGRSTISSDNDKNTVYLQMNSLKPEDTAVYYCAAVPAGRLRFGEQWYPIYEYDAWGQGTLVTVSS
17 | 9.2 fold | 0.00013 s⁻¹ | VHH 55A06 (VHH, periplasmic extract; not shown: C-terminal c-myc tag and His6 tag) VHH: EVQLMESGGGLVQAGGSLRLSCAASGITLDDYAIGWFRQAPGKEREGVSSIRDNDGSTYYADSVKGRFTISSDNDKNTVNLQMNSLKPEDTAVYYCAAVPAGRLRFGEQWYPIYEYDAWGQGTLVTVSS
18 | 9.6 fold | 0.00012 s⁻¹ | VHH 64G11 (VHH, periplasmic extract; not shown: C-terminal c-myc tag and His6 tag) VHH: EVQLVESGGGLVQAGGSLRLSCAASGITLDDYAIGWFRQAPGKERVGVSSIRDNDGSTYYADSVKGRFTISSDNDKNTVYLQMNSLKPEDTAVYYCAAVPAGRLRFGEQWYPIYEYDAWGQGTLVTVSS
19 | 8.9 fold | 0.00014 s⁻¹ | VHH 65F03 (VHH, periplasmic extract; not shown: C-terminal c-myc tag and His6 tag) VHH: EVQMVESGGGLVQAGGSLRLSCAASGLTLDDYAIGWFRQAPGKEREGVSSIRDNDGSTYYADSVKGRFTISSDNDKNTVYLQMNGLKPEDTAVYYCAAVPAGRLRFGEQWYPIYEYDAWGQGTLVTVSS
20 | 9.4 fold | 0.00012 s⁻¹ | VHH 64G02 (VHH, periplasmic extract; not shown: C-terminal c-myc tag and His6 tag) VHH: EVQLVESGGGLVQAGGSLRLSCAISGFTLVDYAIGWFRQAPGKEREGVSSIRDNDGSTYYADSVKGRFIISSDNDKNTVYLQMNSLKPEDTAVYYCAAVPAGRLRFGEQWYPIYEYDAWGQGTLVTVSS
21 | 15.7 fold | 7.4e-05 s⁻¹ | VHH 64G03 (VHH, periplasmic extract; not shown: C-terminal c-myc tag and His6 tag) VHH: EVQLVESGGGLVQAGGSLRLSCAASGFTLDDYAIGWFRQAPGKEREGVSSIRDNDGSTYYADSVKGRSTISSDNDKNTVYLQMDSLKPEDTAVYYCAAVPAGRLRYGEQWYPIYEYDAWGQGTLVTVSS
22 | 8.1 fold | 0.00015 s⁻¹ | VHH 56A07 (VHH, periplasmic extract; not shown: C-terminal c-myc tag and His6 tag) VHH: EVQLVESGGGLVQAGGSLRLSCAASGFTLDDYAIGWFRQAPGKEREGVSSIRDNDGSTYYADSVKGRSTISSDNARNTVFLQMNSLKPEDTAVYYCAAVPAGRLRFGEQWYPIYEYDAWGQGTLVTVSS
23 | 10.8 fold | 0.00011 s⁻¹ | VHH 64F03 (VHH, periplasmic extract; not shown: C-terminal c-myc tag and His6 tag) VHH: EVQLVESGGGLVQAGGSLRLSCAVSGITLDDYAVGWFRQAPGKEREGVSTIRDNDGSTYYADSVKGRFTISSDNDKNTVYLQMNSLKPKDTAVYYCAAVPAGRLRFGEQWYPIYEYDAWGQGTLVTVSS
24 | 8.3 fold | 0.00014 s⁻¹ | VHH 64C07 (VHH, periplasmic extract; not shown: C-terminal c-myc tag and His6 tag) VHH: EVHLVESGGGLVQAGGSLRLSCAASGLTLDDYAIGWFRQAPGVEREGVSSIRDNDGSTYYADSVKGRFTISSDNDKNTVYLQMNSLKPEDTAVYYCAAVPAGRLRFGEQWYPIYEYDAWGQGTLVTVSS
25 | 8.3 fold | 0.00014 s⁻¹ | VHH 64A03 (VHH, periplasmic extract; not shown: C-terminal c-myc tag and His6 tag) VHH: EVQLLESGGGLVQAGGSLRLSCAASGFTLDDYAIGWFRQAPGKEREGVSSIRDNDGSTYYADSVKGRFTISSDNDKNTVYLQMNSLKPEDTAVYYCAAVPAGRLRIGEQWYPIYEYDAWGQGTLVTVSS
